Test results reported in patent publication US20230270815A1 (RAJIV GANDHI CENTRE FOR BIOTECHNOLOGY, published 2023).
No end group written: not given here.

Assays:
[1] = target: T1, DSG3 (UniProt P32926 50-999, limits assumed); assay: co-immunofluorescence on HSC-4 cells
T1 construct: whole, on cells
T1 sequence (looked up): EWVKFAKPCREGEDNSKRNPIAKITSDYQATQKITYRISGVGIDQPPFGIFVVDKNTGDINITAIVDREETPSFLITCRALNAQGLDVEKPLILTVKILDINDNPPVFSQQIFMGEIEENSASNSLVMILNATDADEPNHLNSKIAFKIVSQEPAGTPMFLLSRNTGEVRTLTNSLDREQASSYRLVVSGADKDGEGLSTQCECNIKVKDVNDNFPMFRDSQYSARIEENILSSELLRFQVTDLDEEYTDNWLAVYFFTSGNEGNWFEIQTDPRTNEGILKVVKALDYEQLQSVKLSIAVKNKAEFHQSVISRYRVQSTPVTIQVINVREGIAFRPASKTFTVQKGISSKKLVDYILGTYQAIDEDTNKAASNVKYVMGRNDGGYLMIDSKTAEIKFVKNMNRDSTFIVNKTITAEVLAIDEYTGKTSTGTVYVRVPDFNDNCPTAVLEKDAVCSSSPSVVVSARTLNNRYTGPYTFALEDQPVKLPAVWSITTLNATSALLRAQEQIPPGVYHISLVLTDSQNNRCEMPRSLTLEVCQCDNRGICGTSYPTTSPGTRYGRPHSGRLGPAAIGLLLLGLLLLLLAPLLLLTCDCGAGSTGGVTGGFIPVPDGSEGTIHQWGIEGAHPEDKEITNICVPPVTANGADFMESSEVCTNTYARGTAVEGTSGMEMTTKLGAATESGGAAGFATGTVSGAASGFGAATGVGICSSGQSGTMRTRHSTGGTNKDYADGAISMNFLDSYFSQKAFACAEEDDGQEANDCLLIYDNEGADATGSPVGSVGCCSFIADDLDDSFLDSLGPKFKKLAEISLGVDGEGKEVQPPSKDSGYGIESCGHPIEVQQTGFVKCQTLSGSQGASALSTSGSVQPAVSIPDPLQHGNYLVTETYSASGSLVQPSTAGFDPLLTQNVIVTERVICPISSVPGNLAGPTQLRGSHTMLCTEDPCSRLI

[2] = target: T2, DLL1 (UniProt O00548 18-723, limits assumed); assay: co-immunofluorescence on HSC-4 cells
T2 construct: whole, on cells
T2 sequence (looked up): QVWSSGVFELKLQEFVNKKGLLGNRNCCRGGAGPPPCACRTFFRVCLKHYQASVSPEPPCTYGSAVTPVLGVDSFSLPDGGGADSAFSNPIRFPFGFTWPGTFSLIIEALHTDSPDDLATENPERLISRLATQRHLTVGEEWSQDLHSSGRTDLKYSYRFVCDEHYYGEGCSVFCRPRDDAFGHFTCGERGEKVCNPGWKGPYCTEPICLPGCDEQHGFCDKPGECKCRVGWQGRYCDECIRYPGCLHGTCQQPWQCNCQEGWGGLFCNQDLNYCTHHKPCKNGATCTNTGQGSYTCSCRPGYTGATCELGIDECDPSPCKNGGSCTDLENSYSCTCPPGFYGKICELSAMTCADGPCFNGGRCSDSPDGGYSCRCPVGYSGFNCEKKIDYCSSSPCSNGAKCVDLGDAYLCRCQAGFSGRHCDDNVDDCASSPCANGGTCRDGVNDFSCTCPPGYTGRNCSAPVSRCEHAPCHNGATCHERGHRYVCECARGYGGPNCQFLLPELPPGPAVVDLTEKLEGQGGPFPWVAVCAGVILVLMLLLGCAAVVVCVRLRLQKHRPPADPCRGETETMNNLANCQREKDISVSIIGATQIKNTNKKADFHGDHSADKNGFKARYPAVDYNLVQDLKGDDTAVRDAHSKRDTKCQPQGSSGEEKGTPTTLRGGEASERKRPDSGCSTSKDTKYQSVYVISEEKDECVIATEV

[3] = target: T3, GRPR (UniProt P30550 1-384, limits assumed); assay: co-immunofluorescence on HSC-4 cells
T3 construct: whole, on cells
T3 sequence (P30550 whole entry): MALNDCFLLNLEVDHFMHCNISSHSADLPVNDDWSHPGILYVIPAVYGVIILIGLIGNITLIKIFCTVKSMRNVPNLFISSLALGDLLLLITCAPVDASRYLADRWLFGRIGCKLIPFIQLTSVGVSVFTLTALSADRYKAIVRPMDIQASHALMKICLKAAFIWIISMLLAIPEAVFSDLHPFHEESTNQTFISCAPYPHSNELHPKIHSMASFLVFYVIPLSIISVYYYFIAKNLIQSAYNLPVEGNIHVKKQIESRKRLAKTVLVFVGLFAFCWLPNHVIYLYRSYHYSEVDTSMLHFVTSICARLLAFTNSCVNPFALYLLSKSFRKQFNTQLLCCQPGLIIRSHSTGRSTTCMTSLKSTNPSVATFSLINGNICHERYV

[4] = target: T4, IL6Rα (Interleukin 6 Receptor α) (UniProt P08887 20-468, limits assumed); assay: cell-based or functional assay
T4 sequence (looked up): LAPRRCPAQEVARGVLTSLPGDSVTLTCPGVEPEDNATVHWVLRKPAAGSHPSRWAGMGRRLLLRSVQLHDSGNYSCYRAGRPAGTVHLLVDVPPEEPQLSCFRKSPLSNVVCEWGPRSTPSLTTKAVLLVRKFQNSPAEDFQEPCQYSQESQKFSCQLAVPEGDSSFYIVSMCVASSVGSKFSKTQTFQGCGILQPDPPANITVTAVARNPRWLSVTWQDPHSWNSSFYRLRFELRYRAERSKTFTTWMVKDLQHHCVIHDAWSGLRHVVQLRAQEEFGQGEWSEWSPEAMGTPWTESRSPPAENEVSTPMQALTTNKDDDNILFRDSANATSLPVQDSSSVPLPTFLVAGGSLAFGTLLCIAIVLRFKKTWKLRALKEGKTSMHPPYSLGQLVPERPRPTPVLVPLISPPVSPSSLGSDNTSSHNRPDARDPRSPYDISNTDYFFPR

B1: SSTP1 (Temporin1Dau1) (peptide)
peptide: FLPLLISALTSLFPKLGK
modifications: not fully specified
notes: Chemically synthesized mature peptide of 18 residues from frog skin secretion; No C-terminal amide is printed for SSTP1; also called SSTP1-biotin; SSTP1-Alexa Fluor-488
B1: no binding [1]; no binding [2]; no binding [3]. The “growth inhibition of HSC-4 cells, MTT assay, IC50” value [4] was 10.2 µM and the “growth inhibition of MDA-MB-231 cells, MTT assay, IC50” value [4] was 4.5 µM.
